According to patent US20090155164A1 (Amgen, published 2009):
Changes are numbered by the printed parent chain. Like-named read-outs stand apart in the source and are kept apart here.

B1: anti-c-fms IgG2 clone 1.2 SM (somatic mutation cured) (antibody, V domains shown)
VH: QVQLVQSGAEVKKPGASVKVSCKASGYTFTSYGISWVRQAPGQGLEWMGWISAYNGNTNYAQKLQGRVTMTTDTSTSTAYMELRSLRSDDTAVYYCARESWFGEVFFDYWGQGTLVTVSS
VL: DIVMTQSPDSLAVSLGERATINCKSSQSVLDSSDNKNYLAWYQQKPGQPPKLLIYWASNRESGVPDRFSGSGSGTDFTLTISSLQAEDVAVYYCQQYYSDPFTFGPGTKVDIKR
notes: Recombinant IgG2 kappa; light chain Ser-78 reverted to germline Thr; also called 1.2.1 SM; antibody 1.2 SM
B2: anti-c-fms IgG2 clone 1.109 SM (somatic mutation cured) (antibody, V domains shown)
VH: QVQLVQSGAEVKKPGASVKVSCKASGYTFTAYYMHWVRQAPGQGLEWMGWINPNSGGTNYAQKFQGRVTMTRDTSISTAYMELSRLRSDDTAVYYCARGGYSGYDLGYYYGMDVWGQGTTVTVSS
VL: DIQMTQSPSSLSASVGDRVTITCQASQDISNFLDWYQQKPGKAPKLLIYDASDLDPGVPSRFSGSGSGTDFTFTISSLQPEDIATYYCQQYVSLPLTFGGGTKVEIKR
notes: Recombinant IgG2 kappa; light chain Asn-28 to Asp and Asn-45 to Lys
B3: anti-c-fms IgG2 clone 2.360 SM (somatic mutation cured) (antibody, V domains shown)
VH: QVQLVQSGAEVKKPGASVKVSCKVSGYTLTELSMHWVRQAPGKGLEWMGGFDPEDGETIYAQKFQGRVTMTEDTSTDTAYMELSSLRSEDTAVYYCATGVMITFGGVIVGHSYYGMDVWGQGTTVTVSS
VL: DIQMTQSPSSLSASVGDRVTITCRASQGINNYLAWYQQKPGKVPKLLIYVASTLQSGVPSRFSGSGSGTDFTLTISSLQPEDVATYYCQKYNSGPFTFGPGTKVDIKR
notes: Recombinant IgG2 kappa; heavy chain Val-79 to Ala, light chain Gln-45 to Lys
B4: anti-c-fms hybridoma antibody 2.360 (antibody, IgG2, V domains shown)
VH: B3 VH with A79V
VL: DIQMTQSPSSLSASVGDRVTITCRASQGINNYLAWYQQKPGKVPQLLIYVASTLQSGVPSRFSGSGSGTDFTLTISSLQPEDVATYYCQKYNSGPFTFGPGTKVDIK
notes: Hybridoma IgG2 (cohort 2)
B5: anti-c-fms hybridoma antibody 2.475 (antibody, IgG2, V domains shown)
VH: QVQLVESGGGVVQPGRSLRLSCAASGFTFISYGMHWVRQAPGKGLEWVAVIWYDGSNKYYADSVKGRFTISRDNSKNTLYLQMNSLRAEDTAVYYCADSSGDYYGMDVWGQGTTVTVSS
VL: DIQMIQSPSSLSASVGDRVTITCQASHDISNYLNWYQQKPGKAPKFLISDASNLETGVPSRFSGSGSGTDFTFTISSLQPEDIATYYCQQYDNLPLTFGGGTKVEIK
notes: Hybridoma IgG2 (cohort 2); also called 2.475.2
B6: recombinant human CSF-1 (ligand, UniProt P09603 33-190, looked up)
chain: EEVSEYCSHMIGSGHLQSLQRLIDSQMETSCQITFEFVDQEQLKDPVCYLKKAFLLVQDIMEDTMRFRDNTPNAIAIVQLQELSLRLKSCFTKDYEEHDKACVRTFYETPLQLLEKVKNVFNETKNLLDKDWNIFSKNCNNSFAECSSQDVVTKPDCN
notes: also called hCSF-1

What was measured:
[1] = target: T1, cynomolgus monkey c-fms on primary bone marrow cells (cynomolgus monkey); assay: cell-based or functional assay
[2] = target: T2, human c-fms, full length, on cells (human, UniProt P07333 20-972); assay: cell-based or functional assay
T2 sequence (P07333 20-972): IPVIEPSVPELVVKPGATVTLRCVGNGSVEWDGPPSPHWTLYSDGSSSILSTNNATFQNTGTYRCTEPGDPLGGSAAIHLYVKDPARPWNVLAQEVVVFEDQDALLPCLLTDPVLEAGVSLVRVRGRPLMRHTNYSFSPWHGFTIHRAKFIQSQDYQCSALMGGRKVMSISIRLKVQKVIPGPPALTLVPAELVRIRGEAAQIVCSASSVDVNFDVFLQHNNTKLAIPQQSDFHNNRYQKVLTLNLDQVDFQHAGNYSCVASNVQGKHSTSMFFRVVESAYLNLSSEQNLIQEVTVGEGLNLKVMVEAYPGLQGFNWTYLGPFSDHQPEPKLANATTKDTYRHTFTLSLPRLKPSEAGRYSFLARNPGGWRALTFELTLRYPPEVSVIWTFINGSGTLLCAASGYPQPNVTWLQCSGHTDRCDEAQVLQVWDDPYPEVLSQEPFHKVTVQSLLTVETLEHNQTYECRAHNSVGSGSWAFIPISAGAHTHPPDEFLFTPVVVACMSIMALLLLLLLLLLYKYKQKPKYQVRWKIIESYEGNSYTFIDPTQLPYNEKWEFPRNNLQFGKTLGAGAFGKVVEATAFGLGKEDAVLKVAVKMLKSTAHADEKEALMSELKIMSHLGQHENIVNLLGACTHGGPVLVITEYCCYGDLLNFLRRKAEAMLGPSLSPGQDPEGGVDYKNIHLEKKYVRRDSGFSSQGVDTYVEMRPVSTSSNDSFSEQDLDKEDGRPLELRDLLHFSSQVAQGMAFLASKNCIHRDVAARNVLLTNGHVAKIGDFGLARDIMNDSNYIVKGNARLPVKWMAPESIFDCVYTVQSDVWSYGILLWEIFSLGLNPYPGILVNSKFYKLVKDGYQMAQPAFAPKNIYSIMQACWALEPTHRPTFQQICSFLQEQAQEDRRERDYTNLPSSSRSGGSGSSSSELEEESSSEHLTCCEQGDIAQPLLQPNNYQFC

[3] = target: T3, monomeric human c-fms (residues 1-512)-pHis (human, UniProt P07333 20-512); assay: Biacore 3000, 25 C; mAb captured on goat anti-human IgG Fc, monomeric c-fms(1-512)-pHis analyte, 1:1 fit
T3 construct: Construct stated as residues 1-512; signal stated as amino acids 1-19 and left out; also called human c-fms (1-512).pHIS; monomeric c-fms
T3 sequence (P07333 20-512): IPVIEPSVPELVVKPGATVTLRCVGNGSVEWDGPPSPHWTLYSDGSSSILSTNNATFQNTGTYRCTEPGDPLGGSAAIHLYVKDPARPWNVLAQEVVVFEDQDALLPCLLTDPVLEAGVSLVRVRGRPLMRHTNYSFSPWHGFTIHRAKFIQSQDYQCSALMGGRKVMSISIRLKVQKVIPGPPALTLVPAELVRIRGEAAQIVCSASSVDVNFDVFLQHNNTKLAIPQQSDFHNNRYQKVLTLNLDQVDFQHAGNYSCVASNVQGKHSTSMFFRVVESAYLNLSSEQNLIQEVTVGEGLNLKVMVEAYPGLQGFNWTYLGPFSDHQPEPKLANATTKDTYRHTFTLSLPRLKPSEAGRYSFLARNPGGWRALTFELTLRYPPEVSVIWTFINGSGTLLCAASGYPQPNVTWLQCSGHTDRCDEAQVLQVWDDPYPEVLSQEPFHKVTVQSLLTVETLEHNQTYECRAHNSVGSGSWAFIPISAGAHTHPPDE
Description: (§1) Anti-c-fms 1.2 or 1.2 SM at 0.25 μg/ml was injected over goat anti-human IgG, Fcγ in one flow cell for 2 minutes at 10 μl/min to obtain a surface density of ˜47 RUs. Another flow cell with goat anti-human IgG, Fcγ alone was used as a reference surface. Each assay started with ten cycles of buffer as the analyte to stabilize the signal. […] Each complex was allowed to associate for 2 minutes, and dissociate for 5 minutes. The surfaces were regenerated after each c-fms or buffer injection with a 30-second pulse of 10 mM glycine HCl, pH 1.5 at 100 μl/min, followed by a 30-second injection of buffer.
(§2) Other anti-c-fms antibodies were tested in a similar manner, but changes were made to the protocol to account for differences in binding characteristics.
(§3) Data was double referenced by subtracting the reference surface responses to remove bulk refractive index changes, and then subtracting the averaged buffer blank response to remove systematic artifacts from the experimental flow cells.

[4] = target: T2, human c-fms, full length, on cells; assay: cell-based or functional assay; remark: listed apart in the source
[5] = target: T2, human c-fms, full length, on cells; assay: inhibition of 125I-CSF-1 binding to AML-5 cells; competitor: 125I-CSF-1 (summary table)
Description: (§4) A saturation radioligand binding experiment was performed in conjunction with each inhibition assay in order to determine both a KD and […] for hCSF-1 binding to c-fms expressed on the surface of AML-5 cells. Mixtures were set up in 96-well round-bottom microtiter plates with total volumes of 150 μl/well. All reagents were diluted in binding media containing 0.2% sodium azide and experiments were conducted at 4° C. to minimize potential receptor internalization and shedding.
(§5) Both assays were incubated at 4° C. on a miniorbital shaker for 4 hours, the length of time needed to reach equilibrium as determined in time course experiments. Two 60 μl aliquots of each incubation mixture were transferred to chilled 400 μl polyethylene centrifuge tubes containing 200 μl phthalate oil and spun for 1.5 minutes in a 4° C. tabletop microfuge (Sorvall,) at 9615×g to separate cell associated ¹²⁵I-hCSF-1 from free ¹²⁵I-hCSF-1. The oil tubes were cut, and each cell pellet and supernatant collected in individual 12×75 mm glass tubes and loaded on a COBRA gamma counter (Packard Instrument Company) for cpm measurements. Cpm from duplicate aliquots taken from each well were averaged for analysis.
(§6) Mean K₁ values from 2 experiments were reported (see, TABLE 13).

[6] = target: T1, cynomolgus monkey c-fms on primary bone …; assay: cell-based or functional assay; remark: listed apart in the source
[7] = target: T2, human c-fms, full length, on cells; assay: cell-based or functional assay; remark: listed apart in the source
[8] = target: T3, monomeric human c-fms (residues …); assay: Biacore, monomeric c-fms
Description: (§7) The binding affinities of the somatic mutation corrected antibodies to monomeric c-fms protein were measured by surface plasmon resonance using a Biacore 3000 instrument.
(§8) The affinity of human c-fms (1-512). pHIS (Amgen) for the anti-c-fms mAbs was measured by Biacore. Experiments were conducted at 25° C. using a Biacore 3000 instrument (Biacore AB) equipped with a CM4 sensor chip. Sensor chips, amine coupling reagents (EDC (1-ethyl-3(3-dimethylaminopropyl)-carbodiimide hydrochloride), NHS (N-hydroxysuccinimide), and ethanolamine-HCl, pH 8.5), 10 mM sodium acetate, pH 5.5, HBS-EP (0.01 M HEPES pH 7.4, 0.15 M NaCl, 3 mM EDTA, 0.005% v/v Surfactant P20), and 10 mM glycine-HCl, pH 1.5 were purchased from Biacore AB. Bovine serum albumin (BSA, Bovuminar Standard Powder) was purchased from Serological Corporation. AffiniPure Goat Anti-Human IgG, Fcγ Fragment Specific was purchased from Jackson ImmunoResearch Laboratories.
as §2

[9] = target: T2, human c-fms, full length, on cells; assay: inhibition of 125I-hCSF-1 binding to AML-5 cells, 4 C; competitor: 125I-hCSF-1
Description: as §4
(§9) For the saturation binding assay, ¹²⁵I-hCSF-1 was serially diluted 2-fold, starting at a concentration of ˜1.7 nM and going out 12 wells to a concentration of ˜1.5 pM. Nonspecific binding was measured at a single concentration of ¹²⁵I-hCSF-1 (˜80 pM, in triplicate) in the presence of a 1,000-fold molar excess of unlabeled hCSF-1, and assumed to be a linear function of the concentration of radiolabeled hCSF-1 present.

[10] = target: T1, cynomolgus monkey c-fms on primary bone …; assay: cell-based or functional assay; remark: listed apart in the source
[11] = target: T2, human c-fms, full length, on cells; assay: cell-based or functional assay; remark: listed apart in the source
[12] = target: T3, monomeric human c-fms (residues …); assay: Biacore (summary table)
Description: as §1, §2, §3

[13] = target: T3, monomeric human c-fms (residues …); assay: SPR, Biacore 3000, monomeric c-fms; reference: parent 1.109
Description: as §7, §8, §2

[14] = target: T3, monomeric human c-fms (residues …); assay: SPR, Biacore 3000, monomeric c-fms; reference: parent 2.360
Description: as §7, §8, §2

[15] = target: T1, cynomolgus monkey c-fms on primary bone …; assay: cell-based or functional assay; remark: listed apart in the source
[16] = target: T2, human c-fms, full length, on cells; assay: cell-based or functional assay; remark: listed apart in the source
[17] = target: T1, cynomolgus monkey c-fms on primary bone …; assay: cell-based or functional assay; remark: listed apart in the source
[18] = target: T2, human c-fms, full length, on cells; assay: cell-based or functional assay; remark: listed apart in the source
[19] = target: T3, monomeric human c-fms (residues …); assay: Biacore, low resolution; hybridoma mAb captured on anti-human IgG, monomeric c-fms-pHis analyte at 125 nM
Description: Anti-human IgG was immobilized on all four flow cells of a sensor chip using amine coupling. Crude hybridoma samples were diluted into halves and captured on the anti-IgG surface. […] Sequence lineage analyses were also performed on the 29 hybridomas (see, FIG. 2).

[20] = target: T2, human c-fms, full length, on cells; assay: saturation radioligand binding on AML-5 cells, 4 C; 125I-labelled hCSF-1, saturation binding, 4 C
Description: as §9, §5, §6

[21] = target: T2, human c-fms, full length, on cells; assay: inhibition of 125I-hCSF-1 binding to AML-5 cells, 4 C; unlabeled hCSF-1, competitive inhibition of 125I-hCSF-1, 4 C
Description: as §4, §5, §6

Binder | Cynomolgus bone marrow bioassay IC50 [1] | Kd [3] | koff [3] | kon [3] | antibody concentration that prevented CSF-1-induced pTyr/c-fms, 293T/c-fms cells [4] | Ki [5] | Kd [8] | Ki [9] | Cynomolgus Bone Marrow Proliferation IC50 [10] | Kd [12] | Cynomolgus bone marrow bioassay IC50 [15] | AML-5 bioassay IC50 [16] | Human CD14+ monocytes bioassay IC50 [16] | Cynomolgus bone marrow bioassay IC50 [17] | AML-5 bioassay IC50 [18] | Human CD14+ monocytes bioassay IC50 [18] | Kd [19] | koff [19] | kon [19] | further results
B1 | 0.081 nM | 0.548 nM | 0.00199 s⁻¹ | 3.62e+06 M⁻¹ s⁻¹ | ≥ 0.1 µg/ml | 0.0115 nM | 0.548 nM | 0.0115 nM | 0.081 nM | 0.548 nM | – | – | – | – | – | – | – | – | – | AML-5 bioassay IC50 [2]: 0.012 nM; IC50 of 1.2 SM in the presence of hCSF-1, cynomolgus bone marrow monocytic cell proliferation, Average [6]: 0.0327 nM; IC50 of 1.2 SM in the presence of hCSF-1, cynomolgus bone marrow monocytic cell proliferation, Expt. 1 [6]: 0.0425 nM; IC50 of 1.2 SM in the presence of hCSF-1, cynomolgus bone marrow monocytic cell proliferation, Expt. 2 [6]: 0.026 nM; IC50 of 1.2 SM in the presence of hCSF-1, cynomolgus bone marrow monocytic cell proliferation, Expt. 3 [6]: 0.0229 nM; IC50 of 1.2 SM in the presence of hCSF-1, human bone marrow monocytic cell proliferation, Average [7]: 0.0155 nM; IC50 of 1.2 SM in the presence of hCSF-1, human bone marrow monocytic cell proliferation, Expt. 1 [7]: 0.0155 nM; IC50 of 1.2 SM in the presence of hCSF-1, human bone marrow monocytic cell proliferation, Expt. 2 [7]: 0.0201 nM; IC50 of 1.2 SM in the presence of hCSF-1, human bone marrow monocytic cell proliferation, Expt. 3 [7]: 0.0109 nM; AML-5 proliferation IC50 [11]: 0.012 nM
B2 | 0.023 nM | 0.102 nM | 0.000271 s⁻¹ | 2.66e+06 M⁻¹ s⁻¹ | ≥ 0.1 µg/ml | 0.0097 nM | 0.102 nM | 0.0097 nM | 0.023 nM | 0.102 nM | – | – | – | – | – | – | – | – | – | fold loss of affinity against the parent antibody [13]: 2 fold
B3 | – | 1.2 nM | 0.000955 s⁻¹ | 794000 M⁻¹ s⁻¹ | – | ~0.9 nM | 1.2 nM | ~0.9 nM | – | 1.2 nM | – | – | – | – | – | – | – | – | – | AML-5 proliferation assay, loss in potency relative to the parent IgG2 antibody [4]: 10 fold; fold loss of affinity against the parent antibody [14]: 2 fold
B4 | – | – | – | – | – | – | – | – | – | – | 8 ng/mL | 4 ng/mL | 10 ng/mL | 0.053 nM | 0.027 nM | 0.067 nM | 5.6 nM | 0.000338 s⁻¹ | 60500 M⁻¹ s⁻¹ | –
B5 | – | – | – | – | – | – | – | – | – | – | 25 ng/mL | 6 ng/mL | 10 ng/mL | 0.167 nM | 0.04 nM | 0.067 nM | 4.7 nM | 0.0014 s⁻¹ | 300000 M⁻¹ s⁻¹ | –
B6 | – | – | – | – | – | – | – | – | – | – | – | – | – | – | – | – | – | – | – | Kd [20]: 0.046 nM; Ki [21]: 0.0178 nM
